Data set [1] in a line: in vivo. The settings on record: female, Balb/C, mouse, total radioactivity.
Procedure: CT26 wildtype cells (murine colon carcinoma, ATCC, Virginia, US) were cultured RPMI (Roswell Park Memorial Institute) medium supplemented with 10 % heat-inactivated Fetal Calf Serum (FCS) and 1 % Penicillin-Streptomycin (Invitrogen, Carlsbad, CA., US) retained in 5 % CO2 incubator at 37 °C. Immunocompetent female Balb/C mice (Charles River, Wilmington, MA., USA) were inoculated with tumor cells after one week of adaptation. All 20 mice included were inoculated subcutaneously with 3 x 10^5 CT26 wildtype cells in 100 µL medium on the right flank and hereafter monitored for weight and tumor size continuously for study purposes and to monitor the health of the mice. Tumor sizes were calculated from the formula of 0.52 x lenght^2 x width, as measured by external caliper. Animals were included in the study when tumors were approximately 400 mm^3.
(§1) Mice were injected intratumorally with ^64Cu-compounds in concentrations of 40 MBq/mL. During the scan procedures, mice were anaesthetized using 3-4 % sevoflurane (Abbott Scandinavia AB, Sweden) mixed with 35% O2 and 65% medical grade air and placed on heating pads. Two mice were positioned side-by-side, separated by a 6 mm polystyrene block for PET/CT imaging using Inveon® small animal PET/CT system with CT based PET image attenuation (Siemens Medical Systems, Malvern, PA, USA). The protocol included a 12-minute PET scan, followed by a CT scan. Mice were fixed on a bed inside the scanner with the syringe placed and the needle fixed centrally in the tumor and ready for injection. Upon initiation of the first scan, intratumoral injections were done manually over 30 seconds, to investigate the initial dynamics of the tracer diffusion. Following this, two further scans were included; at six hours (5 minutes scan time) and 24 hours (12 minutes scan time) after injection. Reconstruction of the PET scans were performed using maximum a posteriori (MAP) reconstruction algorithm (voxel size: 0.815 x 0.815 x 0.796 mm; resolution (FWHM) 1.2 mm). The injection scan was reconstructed in 4 x 30 second and 10 x 60 second time frames to observe the dynamics of tracer diffusion. The two last time points were reconstructed in a single time frame.
(§2) Image analysis was performed using commercially available Inveon software (Siemens Medical Systems, Malvern, PA, USA). Regions of interest (ROIs) were manually drawn based on the co-registered PET/CT images. The following ROIs were constructed; tumors (complete volume delineated), liver, spleen, kidney, bladder, and blood. Blood activity was estimated from a constructed ROI covering the left ventricular lumen of the heart. ROIs in the left ventricle and abdominal aorta were subsequently segmented to only include the voxels displaying above 80% of maximum activity with the original ROI. From the obtained uptake values all data was calculated into %ID/g for each organ and as %ID in tumors by adjusting for CT based tumor volume. Furthermore, voxel values from tumor ROIs were used to generate histograms for substance diffusion over time in the tumor region.
The conditions of data set [2]: mouse, in vivo.
Procedure: as §1, §2
(§3) Note that the first point in each plot represents the percentage of voxels with radioactivity concentrations lower than 1.6 %ID/g. These voxels are considered empty, meaning that the corresponding tumor region is non-radioactive.
Data set [3] in a line: in vivo. The settings on record: female, Balb/C, mouse, total radioactivity. This is another data set of the same source.
Procedure: as §1, §2, §3

Usually tissue uptake stands for the percentage of the injected dose found per gram of tissue.

Residues, ends and D or L forms follow the SMILES beside them. *: point of attachment. DOTA = O=C(O)CN1CCN(CC(=O)O)CCN(CC(=O)*)CCN(CC(=O)O)CC1; Stearoyl = CCCCCCCCCCCCCCCCCC(=O)* A value given as a limit tells only on which side of the number the result lay.

As for `CCCCCCCCCCCCCCCCCC(=O)N[C@@H](CCCNC(=N)N)C(=O)N[C@@H](CCCNC(=N)N)C(=O)N[C@@H](CCCNC(=N)N)C(=O)N[C@@H](CCCCNC(=O)CN1CCN(CC(=O)O)CCN(CC(=O)O)CCN(CC(=O)O)CC1)C(N)=O` [64Cu-D3R-C18, metal not drawn] (Stearoyl-RRRK(DOTA)-NH2), in the data set “in vivo [1]”, the tissue uptake at 15 s amounted to 80 ± 66 %ID/g, the tissue uptake at 45 s was 171 ± 96 %ID/g, the tissue uptake at 75 s worked out at 230 ± 58 %ID/g and the tissue uptake at 105 s is 241 ± 63 %ID/g. In the data set “in vivo [1]”, the tissue uptake at 2.5 min worked out at 241 ± 66 %ID/g, the tissue uptake at 3.5 min stood at 240 ± 68 %ID/g, the tissue uptake at 0.075 h amounted to 241 ± 69 %ID/g and the tissue uptake at 5.5 min was 240 ± 70 %ID/g. In “in vivo [1]”, the tissue uptake at 6.5 min stood at 240 ± 70 %ID/g, the tissue uptake at 0.125 h was found to be 240 ± 70 %ID/g, the tissue uptake at 8.5 min amounted to 239 ± 69 %ID/g and the tissue uptake at 9.5 min is 238 ± 70 %ID/g. Moreover, in “in vivo [1]”, the tissue uptake at 0.175 h was determined as 238 ± 70 %ID/g, the tissue uptake at 11.5 min came out at 236 ± 70 %ID/g, the tissue uptake at 6 h was 49 ± 17 %ID/g and the tissue uptake at 24 h turned out to be 23 ± 7 %ID/g. In “in vivo [1]”, the tissue uptake dose at 0.2 h came out at 85 ± 11 %ID. Besides, in data set [2], the “range of voxel radioactivities in tumor” value is 0-500 %ID/g. Moreover, in “in vivo [3]”, the tissue uptake at 5 min is below 10 %ID/g.

The values are drawn from PMC7256013, “Preclinical evaluation of cationic DOTA-triarginine-lipid conjugates for theranostic liquid brachytherapy” (Nanotheranostics, 2020).
